Drawing on a protein production outcome set (Wang et al. 2014), this text covers protein production for 18 sequences.

A short description of the data set: label from the status in PepcDB records.
“MFYRLLFASLWYILPAYVANASACIFGGGTPVDLGKNFIDGRRLIGNGVTYRGCIFGILCGTLVGLIQGILVDFNIFNSLDFYGTVLDHVILAFFLSVGAIVGDAVGSFIKRRLNIERGKPAPLLDQLDFVIGALAFGYIVAPIPYEMIIIICLFTVFVHLLGNIIAYKLGIKDVWW”: the protein production result was “failed”.

On to “MGAAKNIWALANAEDAANDAEQIPYSSFVVDTSLPLPLMIPRIIELCKDLFKNWGELDDSLFSVERVSGGITNLLLKVSVKEDTNKEVSVTVRLYGPNTEYVINREREILAIKYLSAAGFGAKLLGGFGNGMVQSFINARTLEPSDMREPKIAAQIARELGKFHKVDIPGSKEPQLWVDILKFYEKASTLTFEEPDKQKLFETISFEELHKEIIELREFTGLLNAPVVFAHNDLLSGNFMLNDEEEKLYLIDFEYGSYNYRGFDIGNHFNEYAGYDCDYSLYPSKEEQYHFIKHYLQPDKPDEVSIAEVESVFVETDAYKLASHLYWAIWAIIQARMSPIEFEYLGYFFLRYNEYKKQKPLTFSLVTSHLSASL”, for which the protein production entry is “failed”. Turning to “MGAAVGTSEAIQMVNQRQAVWVDVRPTEQFQAGHIAQARSLPAADLEKKAGALPKNKPLIVVCEQGRDAARIAARLRSQGFAEVSVLEGGMRAWFAAGLPVTQKGLEHHHHHH”, the protein production result is listed as “failed”. Next, “MGAFNRRNKRVNNGNVTHLRPFRRNQLRNDNAYDPDEHDLEYVRPRRRGIYLLPNAFTTAALFAGFFAIVQAMNMRFDVAAIAIFAAMVLDGMDGRVARITNTQSAFGEQYDSLSDMTSFGVAPALVMYEWILHDLGKWGWIAAFVYCTCAALRLARFNANIGVVDKRFFQGLPSPAAAALVAGFVWLAIDNKLPVKELWMPWVAFGITLYAGLSMVSNAPFYSGKALDVRYRVPFGMMVLVLVLFVVVSSDPPVALFGLFVAYAISGYLLWAWRTLHGQRGGVDKSRAPGNGSGGN”: “failed”.

For “MGAGQTPHPQLIWPALLKQQGCNELLPLRTNDDWQRFCADSKHLLQYGDKLVDSNFHCFVLEEDAHWHPAAPLPPEGLNDLIRAHCATLGHCCTSKMHLHSVMDAIDFLNALEG”, the protein production entry is “not failed”. Next, “MGALAAAMFDLRSRRENPGPESDPRKGRDRQRPSDARETKEDLKSQPDLRQVKEKVRNDEIAIQSESLVEYKERNQRRDDVLQVPELYDVLLPKLRVRIVFGSSFKPRKSTGRQWSMTQSWLKIKMNTNENEV”: “failed”. For the sequence “MGAMHVLTLDLAPVTPKDAPLLHRVFHLSPSYFALIGMELPTLEDVVRDLQTLEVDPRRRAFLLFLGQEPVGYLDAKLGYPEAEDATLSLLLIREDHQGRGLGRQALERFAAGLDGVRRLYAVVYGHNPKAKAFFQAQGFRYVKDGGPTLTWYVRPL”, the protein production result is given as “not failed”. Regarding “MGANEDQEMELEALRSIYEGDNSFRELSPVSFQYRIGEDGDPKAFLIEVSWTETYPQTAPVISMNAFFNNTISSAVKQSILAKLQEAVEVNLGTAMTYTLFEYAKDHKEQFMENHHPGNSATPVANIISVETPTTAPSSKKKEKKEQLSKAQKRKLADKTDHKGELPRGWNWVDVVKHLSKTGSKDDE”, the protein production result was “failed”. Next, “MGAQKKPAAAKVREDSEDLSRQRLQAILLADSFTTQFRSITLERPKVLLPIVNIPMIDYTLAWLESAGIEEVFVFCCAHSSQIIDYLKKSEWYTRPNPNLLVRTIVSHNSTSVGDALRYIYEQQTETSQIQGDFVLVSGDTVSNMPLADLIQQHRDRKKKDEKAIMTMVFKKQSRLGIGSDQLFVAVDPLTKQLLHYEECNSRGGDFCLDKSLLDSTVLCSDMQDCYIDICSPEVLSLFEDNFDYQHMRRHFVNGLLVDDIMGYKIFTHEIQSSCYAARIDNLRSYDTVSKDIIQRWTYPYVPNIDFSGNRPVKLGRRGIYRASDAVQSHTADVGASTVIGYGTKIGNGGKIYNSVIGNGCCIGSNVVIQGSYIWNNVTIEDGCEIRNAIVCDGVKVRAGAVLQPGVVLSFSVVVGRDFVVPAYSKVSLLQQPTTEDSDEELEYADSSSGTADHSSGLNNLQIESKASELGPDGAGYIWEICDSAHDEEWKHSVVPIPMDKLADITGAMDDDDIEDDIVVPPSGELKSDTDIINTDANDSYGDFEREVEEEFLSAVEKDNKADIVIPLINSHRLAYNMDSADCAGAVFYSMMRLAVKSPHNSATELYRNAMGVITKWKGVLGFYLKQTDAQIEVIMKFEEMCQESEELSPLFAKLLPFLYDKDVVQEDAILRWGEEKAGADDCDKVYLNKCESFIKWLKEASEEEEEDS”: “failed”; “MGARTPPCGREIVRVLPSERLISGNGEGAPLPDSHSELPPVIRRTEFVAYALAGLLLIAVIGVLYFAKAFFLPVVMAVVAGTMLSPAASFLERRGVPRALGAVLIVTAVTTVVAFVVALIAVPAMEWSSRLPELGAQLKEKLHVFDRPLALWKELQTMVGGSEGLPSLPLPKAEWVQPTLEFLSPTFAEFLLFFATLILFIASWRDLRRALIMNFGDRDARLRTLRILNEIEVHLGNYLLTVTVINIGVGVATGIICAITGMPNPAGLGALAAALNFIPIIGPIAMFIVLIVVGLVAFPTLGGGLMAGLAFGGITFLEGHFVTPTIIGRRLSLNALAVFIALAFWTWLWGPMGAFLSSPLLIVGLILKEHLLPENSPQLPQA”: “failed”. As for “MGASTFWIITIVFCIAIYFLDKFLRKKLNMPKGGFWGYKKHVNSLHKKLEIGLLFIYLITSFIFIFKFESINIAYVIFTYLGGTLILRALMEWKYDRESKEYIFSVIGVFTFIFMTSILFYFFPPAV”, the protein production entry is “failed”. For “MGCVFTNFRLRRSQTPKAKTPMIFEKQDYQQECIYNIITLLDGFDFKRHDALNLKDCLNQFHAACEIPVKNVSGKLNVDVLMETGTGKTFTYLNLIFALHKAYGQNKFIIFVPRKAILESVKQNIRLTKDYFYLEFKRHLKTYTYEGVKSPSNIINHYIKNQDELSVLLLTNSAIDKEGNILNKNSENLFNTKSIFENIADLKPISIIDEPHLLKGEAFGKYFGKIGALYFRFGATFAKEKEHALSNVAFCLDSISAFRNYLVKQIRIHSVMQDAQSPFLLNADSKSAKIAFYKAGILKQITLSKGEDLGKINASFNGVSLVKTAKDKAYLSNGATLEKASYKLAQDEISALLEKAIDLHFEKEAFLFDQNIKALSLFFIPKIEDFRQIDNKGTPFIKTEFERLYKLKRASILARENLSPSYKEYLKRDFDESGNLRVHQGYFSGDSVALNKGKKESKKEDIEANDIKMILSEKEKLLSFQTPLRFIFSVWALQEGWDNPNIFTLIKLANSTSETSRHQQVGRGLRIAINQEGKRVTHGFLKGNDNAFYKINYLDMLVSGEEVGFIEGLQKEIEASSFIGGGNALDREDLAKLGLNEREINKLFVELENSNALEFDETNNAYKIIAPICETMQNNEERIKDFLSDEEYHAVLSAFKMAENPTNKRDQIINANQPQEKVKIRQNLAKEFKELWQTINAQSQLSYQNIQKTKLIESIAKAFNESHVSAEVIKFESKRYDPQTNRIITEQSSTLKIRDYANALQKEINALLLDFAKDERLPLKFTLELYNALNKEHFTNSPKKAFKLLKGIIKDKLHENLLSCVSYGFCQNAFSNTAFDKTDPLYCEDGSPKNEIEKHKIGKYKSAQTPSPNYLYETIIYDSKIEEEVSEEGVQTLEGKSIEVFAKLPKFKIPTPYKNYEPDFAYLLKDEKGAKIFFVCETKGYEKESDIPPDEKRKIEYAKKFFETLSQNLKNAKKEIRVVFATRINKQDLFNTLKNALKETP”, the protein production result is recorded as “failed”. In the case of “MGDEHSLIPKQIGVVPSAGFLNVEVFERPCPEPNIQPWDIPYVHYPKPKTYSSSNGEIFSVKDRRANVSTIFETLDKVYNLDWLSSASKNECTSAVGLKWMLNQAEILARYKPLINTSLLIPDLKQVQEMTSKALAYFNTTRHIFLYYEDVVKNRTKLDDVQEFLKVPKLDLKSRQVKIHHGPLSQHVQNWEEVQKTLKGTGFENFLLEDYRR” it was “failed”; in that of “MGDFIGSVWWMIVSLGVLVTFHEFGHFWVARRCGVKVLRFSVGFGKPLWMRRDRHGTEFVVAAIPLGGYVKMLDEREGDVHPAEQDQAFNRKTVWQRIAIVAAGPIANLLLCMAMLWAMFVVGKQDYSATVGRADGLAAEAGLTPGERIVRIDGRSVSSWSDASMQLTTAAMDRRDVRVLTASDTASSSEHTLRLSQLPVGFDERRVAALAGIGWQFMLQPPVIAEVVKGSVADGLLKPGDRIVAIDGQPIRSAEDIIPQVQALGAHGGPGMIEVARGEDRLALEIAPRKSPQGQWMIGVRPAAAPAPEYDSRQQYGLFAAVPAAIRETGRMTADSLGMMKRMLTGQASVKNISGPVTIARAANASAERGLDWFLYFLGLLSLSLAIINLMPIPILDGGHLLYYLIELIKGSPISERAMIAGQYVGLAALAGLMGLAFYNDILGLVPR”, “failed”. Next, “MGDSKGRVASAAVSLAEFLESCAGKWFSQRTSYRLGATQDWHQSDQTTLFVDFLAADAPELQALIAEQGLAIAALQSRWEATPQQPASTSLLVFLAEGDRLVHQRGDRCWQGRYQFEGDHRGLTLTTEQPDGQVEERFWFAHPNLRLRTSLIRDRTGLSRSSFYSEIRLGVKPPEPPAEV”: “failed”.

For the sequence “MGEEATAVAAAGVRPELVREAEVSLLECKVCFERFGHWQQRRPRNLPCGHVVCLACVAALAHPRTLGLECPFCRRACRACDTSDCLPVLHLLELLGSTLHASPAALSAAPFAPGTLTCYHAFGGWGTLVNPTGLALCPKTGRVVVVHDGKRRVKIFDSGGGGAHQFGEKGDAAHDVKYPLDVAVTNDCHVVVTDAGDCSLKVFDFFGQIKLVVGKQFSLPWGVEITPHNGVLVTDAEAGTLHLLEADFPEGVLRRIERLQAHLCSPRGLAVSWLTGAIAVLEHPCAFGRTGCNNTRVKVFNSTMQLIGQVDSFGLNLLFPSKVTASAVTFDHQGNVIVADTSGPAIVCLGKPEEFPALKPIITHGLSRPVALAFTKENSLLVLDTASHSIKVFKVMEGNGG”, the protein production result was “failed”. Next, “MGEPNLQLSLLYVIAIFTSAILLSARMSLLITLLAVIAVIYQRFVGSLFDYNNLNTIGNSALLAFLFFVVHRIGQIAVQRFKLLEALTFHQSIELYQLQNINRYILEQIEEGYLVLDENYDIVVSNPAACSLLGIPPQFANEKYPLAKWHADLFEILKFGDLKEGDRFIFESRLSAYSINIKVQHLLVPQQTLTLLILQDAQQINQQAQQLKLAALGQLSASIAHEIRNPLAAIVQANELLKDSDPEQQNTLRHMIGKQTKRIDSIVQDTLGLARSERTHPIQIDVKHFIDTLLEEDLFDVKHSIQLKISDSSLKFLFDEKQLRQVMINLVRNALRHNATDSPYITINIHSQTNKIYIDVIDYGEGVSKRDISQLFKPFFSTEINGTGLGLYLSHSFCEANHAKLTYVEQKQGACFRIECPIIY”: “failed”; “MGESVRTLSYGSWPSPVDAALAAAHDGRPDDVGFVGDEVWWTAPRPTEGGRRTLVRRHADGTEEPVLPAPWNVRSRVIEYGGRPWGAATTDSGPLVVFVNFADQRLYAFTPGGGEPRPLTPLSAVGGGLRWIEPDPRPERGEVWCVLEEFTGEGPTDVRRVPVAVPLDGSAADDRGAVRELAPERHRFVTGPRLSPDGRRAAWLAWDHPRMPWDGTELIVAEVGPEGTFQAARTVAGGPEESIAQADWAPDGTLLYASDRTGWWNLYRDGRPLCPREEEFGGPLWKLGQRWFAPLDSGLIAVLHGRGAAVLGILDPETGEVVDAAGPWTEFAPALAAHGERVAAVGASPRSGYEVVELDARTGRARVIGAPHEDATDPEFYPRPRIRTFTGPGGREIHAHVYPPHHPGCRAPDGELPPYVIWAHGGPTSRSPLVLDLEIAYFTSRGIGVAEVNYGGSSGHGREYRNRLREQWGVVDVEDCAAVALALADEGTADRARLAVRGGSAGGWTSAASLATTDVYACGTISYPILDLTGWGTGETHDFESQYLESLIGPYAEVPDRYTDRSPAEHAERVTAPFLLLQGLDDVICPPVQCERFLDRMAGRGVPHAYLAFEGEGHGFRRAETMVRALEAELSLYAQVFGLTPPGVPVLELTR”: “failed”.
